The target in this assay is TAP-tagged human presenilin 1 (human) (UniProt P49768). As to the kind of experiment: SEC-MALS; TAP-purified PS1 complex on Superdex S-200 10/300 in Tris buffer with 0.1% digitonin; protein and detergent masses by conjugate analysis; complex co-purified from cells.

What is called stoichiometry N is a count of units in the complex or per binding partner. In turn, “anterior pharynx 1 (aph1) (from UniProt Q96BI3 1-265) (natural protein)” showed a stoichiometry N of 1.

The values above are taken from article PMC3887256.
